Patent US20240409639A1 (CELLDEX THERAPEUTICS, published 2024)

What was measured:
[1] = biological target: T1, recombinant human PD-1-msFc (human, UniProt Q15116 25-167, limits assumed); assay: ELISA, plate coated with recombinant human PD-1-msFc
T1 construct: not shown: mouse Fc ('msFc')
Procedure: Microtiter plates were coated with recombinant human PD-1-msFc in PBS, and then blocked with 5% bovine serum albumin in PBS. […] The plates were washed with PBS/Tween and then incubated with a goat-anti-human IgG Fc-specific polyclonal reagent conjugated to horseradish peroxidase at 37° C. After washing, the plates were developed with HRP substrate, and analyzed at OD 450 using a microtiter plate reader.

[2] = biological target: T2, human PD-1 expressed on cells (human, UniProt Q15116 25-288); assay: flow cytometry on HEK293 cells expressing human PD-1
T2 construct: whole, on cells; also called HEK293 cells expressing human PD-1; PD1 Effector cells
T2 sequence (Q15116 25-288): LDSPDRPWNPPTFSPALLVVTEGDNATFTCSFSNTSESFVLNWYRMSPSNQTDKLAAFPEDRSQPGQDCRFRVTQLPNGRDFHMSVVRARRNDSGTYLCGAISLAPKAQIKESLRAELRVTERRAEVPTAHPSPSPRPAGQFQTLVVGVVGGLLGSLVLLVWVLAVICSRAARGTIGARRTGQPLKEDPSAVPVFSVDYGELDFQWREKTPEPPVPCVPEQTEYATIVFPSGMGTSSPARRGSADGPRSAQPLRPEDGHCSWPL
Procedure: After 20 minutes, the cells were washed with PBS containing 0.1% BSA and 0.05% NaN₃ (PBA) and the bound antibodies were detected by incubating the cells with a PE labeled goat anti-human IgG Fc-specific probe. The excess probe was washed from the cells with PBA and the cell associated fluorescence was determined by analysis using a FACSCanto II™ instrument (BD Biosciences, NJ, USA) according to the manufacturer's directions.

T1 sequence (Q15116 25-167 limits assumed): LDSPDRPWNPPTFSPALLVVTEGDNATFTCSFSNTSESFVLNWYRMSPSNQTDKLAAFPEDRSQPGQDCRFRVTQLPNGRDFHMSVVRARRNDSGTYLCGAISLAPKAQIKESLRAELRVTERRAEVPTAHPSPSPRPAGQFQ

binding result [1]: binds
binding result [2]: binds
B1: bispecific construct CDX-585 (bispecific antibody, human IgG1, kappa)
heavy: QVQLVQSGAEVVKPGASVKISCKASGYTFTDYVMHWVRQAPGQSLEWMGVISTYHIPAVYNQKFKGKATMTVDTSTSTVYLELSSLRSEDTAVYYCAREVYGESYYFDVWGQGTTVTVSSASTKGPSVFPLAPSSKSTSGGTAALGCLVKDYFPEPVTVSWNSGALTSGVHTFPAVLQSSGLYSLSSVVTVPSSSLGTQTYICNVNHKPSNTKVDKKVEPKSCDKTHTCPPCPAPEAQGGPSVFLFPPKPKDTLYITREPEVTCVVVDVSHEDPEVKFNWYVDGVEVHNAKTKPREEQYNSTYRVVSVLTVLHQDWLNGKEYKCQVSNKALPAPIEKTISKAKGQPREPQVYTLPPSRDELTKNQVSLTCLVKGFYPSDIAVEWESNGQPENNYKTTPPVLDSDGSFFLYSKLTVDKSRWQQGNVFSCSVMHEALHNHYTQKSLSLSPGKGSSGGGGSDIQMTQSPSSLSASVGDRVTITCRASENIYSYLAWYQQKPGKAPKFLVYNADTLAEGVPSRFSGSGSGTDFTLTISSLQPEDFATYYCQHHYGTPFTFGCGTKLEIKGGGGSGGGGSGGGGSGGGGSQVQLVQSGAEVKKPGASVKVSCKASGYSFTGYTMHWVRQAPGQCLEWMGLINPYTGGTDYNQKFQGRVTMTVDRSTSTAYMELSSLRSEDTAVYYCARERPGGSQFIYYYALDYWGQGTTVTVSS
light: DIVMTQTPLSLPVTPGEPASISCRSSQSIVHSAGNTYLEWYLQKPGQSPQLLIYKVSNRFSGVPDRFSGSGSGTDFTLKISRVEAEDVGVYYCFQGSHVPYTFGGGTKVEIKRTVAAPSVFIFPPSDEQLKSGTASVVCLLNNFYPREAKVQWKVDNALQSGNSQESVTEQDSKDSTYSLSSTLTLSKADYEKHKVYACEVTHQGLSSPVTKSFNRGEC
notes: Tetravalent format, bivalent for each target; The Fc carries L234A, L235Q, K322Q (AQQ) and M252Y, S254T, T256 (YTE); The scFv is stabilised by a disulfide from Gly to Cys at positions 558 and 629 of the mature heavy chain; also called E1A9-7B1; bsAb
